Test [1] has as its target Skeletal muscle actin (chicken), filaments (chicken, UniProt P68139 1-377). The test is described as follows: count of fluorescent actin filaments on surface-immobilized myosin (modified in vitro motility assay); PfMyoA surface-immobilized; same buffer, 0% methylcellulose, 30 °C; no nucleotide (NF); with or without KNX-002. The conditions noted are these: both partners purified.

Test [2] deals with T1, Full-length PfMyoA heavy chain WT (Plasmodium falciparum, UniProt Q8IDR3 1-818).
T1 sequence (heavy): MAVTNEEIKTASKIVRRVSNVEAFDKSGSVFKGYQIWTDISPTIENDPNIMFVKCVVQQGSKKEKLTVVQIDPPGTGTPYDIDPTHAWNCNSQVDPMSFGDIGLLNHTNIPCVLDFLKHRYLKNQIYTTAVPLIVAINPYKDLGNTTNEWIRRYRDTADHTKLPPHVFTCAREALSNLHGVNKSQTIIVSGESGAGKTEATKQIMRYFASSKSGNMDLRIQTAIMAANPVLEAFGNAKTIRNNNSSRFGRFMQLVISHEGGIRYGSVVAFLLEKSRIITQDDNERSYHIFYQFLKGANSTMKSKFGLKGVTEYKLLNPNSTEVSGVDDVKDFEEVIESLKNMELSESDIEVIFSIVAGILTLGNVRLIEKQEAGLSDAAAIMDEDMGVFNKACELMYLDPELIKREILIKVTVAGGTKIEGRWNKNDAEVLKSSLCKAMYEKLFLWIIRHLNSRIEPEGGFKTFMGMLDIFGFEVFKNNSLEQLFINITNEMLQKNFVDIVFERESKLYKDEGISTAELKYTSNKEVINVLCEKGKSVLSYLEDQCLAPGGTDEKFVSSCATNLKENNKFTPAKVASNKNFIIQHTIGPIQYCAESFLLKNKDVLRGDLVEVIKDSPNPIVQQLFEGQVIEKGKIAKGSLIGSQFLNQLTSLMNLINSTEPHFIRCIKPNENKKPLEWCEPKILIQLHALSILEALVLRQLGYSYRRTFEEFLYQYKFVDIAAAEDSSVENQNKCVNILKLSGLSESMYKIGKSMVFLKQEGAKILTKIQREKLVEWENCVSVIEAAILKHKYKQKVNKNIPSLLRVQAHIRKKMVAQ
The test is described as follows: crystal structure; PfMyoA/ELC/MTIP-ΔN co-crystallized with or without KNX-002 and with or without ATPγS; hanging drop, 4 °C, 2.0 M ammonium sulfate, 0.1 M sodium HEPES pH 7.5, 4% PEG400. The settings on record: both partners purified.

B1: PfMyoA (full length Plasmodium falciparum myosin A heavy chain WT with bound light chains PfELC and PfMTIP) (complex)
chain 1: T1 sequence (heavy)
chain 2: MASDMEEKFREAFILFSSCSDHIEMYKFFELMNSFGIILTNDEKAALPNDINMDYWLNFAKKHYNYEQPFKHINNVNEQNTNVQIKIDNFLGIMKALDTRLTESDLNILLQITNPENKSTLNLKTVSQKLTESI
chain 3: MKQECNVCYFNLPDPESTLGPYDNELNYFTWGPGFEYEPEPQRKPLSIEESFENSEESEESVADIQQLEEKVDESDVRIYFNEKSSGGKISIDNASYNARKLGLAPSSIDEKKIKELYGDNLTYEQYLEYLSICVHDKDNVEELIKMFAHFDNNCTGYLTKSQMKNILTTWGDALTDQEAIDALNAFSSEDNIDYKLFCEDILQ
notes: also called class XIV myosin A; M.ADP; copies: + +
As for B1, the binding result in test [1] is given as “binds”.

B2: PfELC (natural protein)
light: B1 chain 2
notes: also called essential light chain
Regarding B2, the binding result in test [2] was “binds”.

B3: MTIP-ΔN (PfMTIP lacking residues 1-E60) (domain or fragment)
light: SVADIQQLEEKVDESDVRIYFNEKSSGGKISIDNASYNARKLGLAPSSIDEKKIKELYGDNLTYEQYLEYLSICVHDKDNVEELIKMFAHFDNNCTGYLTKSQMKNILTTWGDALTDQEAIDALNAFSSEDNIDYKLFCEDILQ
notes: also called ΔN-MTIP
Take B3: in test [2], the binding result is recorded as “binds”.

These data come from publication PMC10261046, “Mechanism of small molecule inhibition of Plasmodium falciparum myosin A informs antimalarial drug design” (Nature Communications, 2023).
